Results on 1 molecule are retold here after patent US6037450.

The target of this assay is human protein C (human) (UniProt P04070). Nature of the assay: protein C affinity column (protein C held on HPC4 mAb-AffiGel-10, 3 mM CaCl2, 0.6 mM MgCl2); EPCR antigen in the fractions measured by ELISA. (In an ELISA, binding on a coated surface is turned into a signal by an enzyme label.)
UniProt P04070, sequence (P04070 43-461): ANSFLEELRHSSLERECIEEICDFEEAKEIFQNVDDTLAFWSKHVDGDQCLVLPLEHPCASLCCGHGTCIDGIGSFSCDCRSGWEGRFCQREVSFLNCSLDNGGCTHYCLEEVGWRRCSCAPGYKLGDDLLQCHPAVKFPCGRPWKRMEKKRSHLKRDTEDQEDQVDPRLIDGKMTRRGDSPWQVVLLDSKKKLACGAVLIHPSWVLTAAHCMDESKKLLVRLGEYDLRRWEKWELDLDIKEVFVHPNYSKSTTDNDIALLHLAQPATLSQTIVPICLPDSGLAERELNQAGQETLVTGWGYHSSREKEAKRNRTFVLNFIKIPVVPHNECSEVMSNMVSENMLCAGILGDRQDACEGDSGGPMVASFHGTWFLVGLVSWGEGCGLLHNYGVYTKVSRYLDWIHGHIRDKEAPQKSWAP

B1: plasma EPCR (soluble endothelial cell protein C/activated protein C receptor purified from human citrated plasma) (receptor)
chain: SQDASDGLQRLHMLQISYFRDPYHVWYQGNASLGGHLTHVLEGPDTNTTIIQLQPLQEPESWARTQSGLQSYLLQFHGLVRLVHQERTLAFPLTIRCFLGCELPPEGSRAHVFFEVAVNGSSFVSFRPERALWQADTQVTSGVVTFTLQQLNAYNRTRYELREFLEDTCVQYVQKHISAENTKG
In turn, B1 had a percent of applied antigen bound of over 98%.
